The term Kd denotes a measure of binding affinity in units of concentration. High values mean lower affinity, low ones higher affinity.

Data set [1] addresses T1, Prp24 oRRM4 (Saccharomyces cerevisiae, UniProt P49960 292-400).
T1 sequence: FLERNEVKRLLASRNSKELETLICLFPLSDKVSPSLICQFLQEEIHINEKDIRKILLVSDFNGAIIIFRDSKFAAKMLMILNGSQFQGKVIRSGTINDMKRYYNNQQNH
Description: fluorescence anisotropy. On the technique in general: Fluorescence polarisation rises when a labelled molecule tumbles more slowly, as on binding a larger partner.

Data set [2] has as its target T1, Prp24 oRRM4. Put plainly: fluorescence anisotropy. This is another data set of the same source.

B1: U2 nt 1-51, 5'-FITC (ssRNA)
RNA: ACGAAUCUCUUUGCCUUUUGGCUUAGAUCAAGUGUAGUAUCUGUUCUUUUC
On to B1, for which the binding result with Prp24 oRRM4 [1] is listed as “binds”.

B2: U6 nt 49-88, 5'-Cy5 (structured_RNA)
RNA: AGAGAUGAUCAGCAGUUCCCCUGCAUAAGGAUGAACCGUU
On to B2, for which the Kd with Prp24 oRRM4 [2] was determined as 3.1 µM.
